The subject of data set [1] is EGFP-R96X-TGA reporter. Nature of the data set: PTC readthrough of ArgTCA suppressor tRNA versus nonsense suppression drugs, EGFP-R96X-TGA reporter, Neuro-2a cells (FIGS. 21-22). In kind it is cell-based, mouse. The following applies: versus ataluren, gentamicin, G418. The protocol:
FIG. 21 depicts fluorescent images of Neuro-2a cells ~24 hours after transfection with an expression construct containing an EGFP-R96X-TGA reporter (“GFP-PTC”) and either (i) including the ArgTCA suppressor tRNA #115 (SEQ ID NO: 18) at the indicated copy number on the same construct, or (ii) treated with ataluren at the indicated concentration, (iii) treated with gentamicin at the indication concentration, or (iv) treated with G418 at the indicated concentration. For all experimental conditions, cell culture medium was replaced with fresh medium ~6 hours after transfection and the indicated drugs at the indicated concentrations were added at this point. […]
FIG. 22 is a graph depicting percentage of GFP positive cells as measured by flow cytometry at ~48 hours post transfection. […]
Disclosed suppressor tRNAs were tested alongside nonsense suppression drugs translarna (ataluren), gentamicin, and G418 (geneticin). PTC readthrough activity was measured in Neuro-2a cells ~48 hours after transfection with an expression construct containing a CAG:NLS-EGFP (R96X-TGA) reporter (as described in Example 1) and either (i) including an ArgTCA suppressor tRNA at the indicated copy number on the same construct, or (ii) treated with ataluren, (iii) treated with gentamicin, or (iv) treated with G418. […] PTC readthrough activity was measured as the percentage of EGFP positive cells. […]

For data set [2], the system named is EGFP-R96X-TGA. Nature of the data set: Readthrough of suppressor tRNA delivered by AAV-PHP.eB, EGFP-R96X-TGA, 293 cells pre-transfected with LY6A (FIG. 41). It is filed as cell-based, human. An excerpt:
FIG. 40 is a schematic representation of constructs that were packaged into AAV-PHP.eB capsids. Construct 262 contains wild-type EGFP driven by an EF1a promoter. Construct 269 contains EGFP-R96X-TGA driven by an EF1a promoter (SEQ ID NO: 177) and two copies of the ArgTCA suppressor tRNA #115 (SEQ ID NO: 18) (“TCA-115”) in the context of 55 bps upstream flanking genomic DNA from tRNA-Tyr-GTA-5-1 (SEQ ID NO: 900). Both constructs contain 5′ and 3′ ITR sequences from AAV2, which provide cis-acting elements for AAV replication and packaging.
FIG. 41 depicts readthrough activity of suppressor tRNAs delivered by AAV. AAV-PHP.eB containing the constructs shown in FIG. 40 was produced by Vigene Biosciences. 48 hours prior to AAV transduction, 293 cells were pre-transfected with an expression construct containing the LY6A gene, which is required for robust transduction by AAV-PHP.eB. Cells were transduced at an MOI of 1E5 vg/cell. Where indicated, cells were also transfected with an expression construct containing the EGFP-R96X-TGA reporter (SEQ ID NO: 31) and an expression construct containing the ArgTCA suppressor tRNA #115 (SEQ ID NO: 18). At 72 hours post transduction, the EGFP signal was quantified by immunofluorescence. Live cell images were captured on an EVOS FL Auto 2 imaging system. […]

B1: tRNA-Arg-TCT-2-1-TCA-SUP_no intron (nucleic acid)
chain: GGCTCCGTGGCGCAATGGATAGCGCATTGGACTTCAAATTCAAAGGTTCCGGGTTCGAGTCCCGGCGGAGTCG
modifications: chemistry not fully specified
In the case of B1, in data set [1], the “PTC readthrough compared with nonsense suppression drugs” value was “far greater readthrough than any of the nonsense suppression drugs”. Also, the “readthrough activity, AAV delivery versus transient transfection” value in data set [2] (293 cells pre-transfected with LY6A) is recorded as “comparable readthrough activity when delivered by AAV or transient transfection”. Moreover, the “PTC readthrough based on GFP intensity” value in data set [2] (AAV-PHP.eB with construct 269 (two copies of #115), MOI 1E5 vg/cell, 72 hours post transduction, normalized to construct 262 (wild-type EGFP)) is given as ~ 13.2%.

Values taken from patent US12697350B2, “Methods and compositions for treating a premature termination codon-mediated disorder” (Tevard Biosciences, Inc., priority 2019, dated 2026).
